{"source": "patent US20140248273A1", "about": "(published 2014)", "binders": {"B1": {"name": "recombinant extracellular domain of mouse TLR2 (receptor)", "chain": "QESLSCDASGVCDGRSRSFTSIPSGLTAAMKSLDLSFNKITYIGHGDLRACANLQVLILKSSRINTIEGDAFYSLGSLEHLDLSDNHLSSLSSSWFGPLSSLKYLNLMGNPYQTLGVTSLFPNLTNLQTLRIGNVETFSEIRRIDFAGLTSLNELEIKALSLRNYQSQSLKSIRDIHHLTLHLSESAFLLEIFADILSSVRYLELRDTNLARFQFSPLPVDEVSSPMKKLAFRGSVLTDESFNELLKLLRYILELSEVEFDDCTLNGLGDFNPSESDVVSELGKVETVTIRRLHIPQFYLFYDLSTVYSLLEKVKRITVENSKVFLVPCSFSQHLKSLEFLDLSENLMVEEYLKNSACKGAWPSLQTLVLSQNHLRSMQKTGEILLTLKNLTSLDISRNTFHPMPDSCQWPEKMRFLNLSSTGIRVVKTCIPQTLEVLDVSNNNLDSFSLFLPRLQELYISRNKLKTLPDASLFPVLLVMKIRENAVSTFSKDQLGSFPKLETLEAGDNHFVCSCELLSFTMETPALAQILVDWPDSYLCDSPPRLHGHRLQDARPSVLECHQ", "notes": "extracellular domain; also called mTLR2"}}, "target": "His-tagged SSL3 (S. aureus strain NCTC 8325), with the pRSETB N-terminal tag carrying the Xpress epitope (Staphylococcus aureus strain NCTC 8325, UniProt Q2G0X7 31-356)", "assay": "ELISA, coated extracellular domain of mouse TLR2 (FIG. 5A)", "data": [{"binder": "B1", "values": [{"measurement": "binding result", "value": "binds"}]}]}
